{
  "source": "the RNAGym collection of RNA variant scans (doi:10.1073/pnas.2313332121)",
  "parents": {"B1": {"name": "TPR t1 (parent)", "chain": "GACCAAUCUGCCCUCAGAGCUCGAGAACAUCUUCGGAUGCAGAGGAGGCAGGCUUCGGUGGCGCGAUAGCGCCAACGUCCUCAACCUCCAAUGCAUCCCACCACAUGAUGAUGCCUGAAGAGCCUUGGUUUUUUG"}},
  "data": [
    {"variants_of": "B1", "assay": "polymerase ribozyme fitness, log enrichment relative to wild type (log ratio); higher = more active; in vitro selection for triplet polymerase activity", "procedure,_shortened": "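For each subunit of a heterodimeric triplet polymerase ribozyme, a mutant library was built by PCR and transcribed, then taken through a single in vitro selection round in triplicate. Selection involved annealing to a biotinylated primer, the partner subunit and triplets, incubation frozen at −7 °C, gel excision of extended constructs, capture on streptavidin beads and RT-PCR. Genotypes were retained after Illumina sequencing of inputs and outputs only with ≥10 input reads and ≥1 read in each output. Fitness is defined as the logarithm of a genotype's enrichment relative to wild-type enrichment, using inverse-variance-weighted averages across replicates, with the logarithm taken to base 2.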", "values": [
      {"variant": "G48A U87A G120C C124G", "polymerase ribozyme fitness (log ratio)": 0.521},
      {"variant": "A46C C73A", "polymerase ribozyme fitness (log ratio)": -1.64},
      {"variant": "G48C C56U G77A G110A", "polymerase ribozyme fitness (log ratio)": -2.29},
      {"variant": "G47U C53A C70U U126C", "polymerase ribozyme fitness (log ratio)": -2.43},
      {"variant": "G47U U54C", "polymerase ribozyme fitness (log ratio)": -3.33},
      {"variant": "G47A U54C C97G", "polymerase ribozyme fitness (log ratio)": -5.9},
      {"variant": "A46U C104A", "polymerase ribozyme fitness (log ratio)": -2.88},
      {"variant": "G48A G61U U78C", "polymerase ribozyme fitness (log ratio)": -0.213},
      {"variant": "G47A C72U", "polymerase ribozyme fitness (log ratio)": -0.456},
      {"variant": "G47A C72A", "polymerase ribozyme fitness (log ratio)": -0.266},
      {"variant": "G47U G120C", "polymerase ribozyme fitness (log ratio)": -0.748},
      {"variant": "G48A C53U C80U C124U", "polymerase ribozyme fitness (log ratio)": 0.0289},
      {"variant": "G47A C53U U54C", "polymerase ribozyme fitness (log ratio)": -1.11},
      {"variant": "G47U G58U C88U", "polymerase ribozyme fitness (log ratio)": -2.22},
      {"variant": "G45U G122A", "polymerase ribozyme fitness (log ratio)": -1.14},
      {"variant": "G47A G110A", "polymerase ribozyme fitness (log ratio)": -1.67},
      {"variant": "G47U G128U", "polymerase ribozyme fitness (log ratio)": -2.73},
      {"variant": "G47C C62G", "polymerase ribozyme fitness (log ratio)": -4.1},
      {"variant": "G47C A50U U81C C114U", "polymerase ribozyme fitness (log ratio)": -4.15},
      {"variant": "G47U G135C", "polymerase ribozyme fitness (log ratio)": -1.39},
      {"variant": "G47U C49U C62U G117U", "polymerase ribozyme fitness (log ratio)": -5.19},
      {"variant": "A46U C64G C123G C124A", "polymerase ribozyme fitness (log ratio)": -5.93},
      {"variant": "G47C G48A", "polymerase ribozyme fitness (log ratio)": -2.94},
      {"variant": "G48A G110C", "polymerase ribozyme fitness (log ratio)": -4.33},
      {"variant": "A46U G60C", "polymerase ribozyme fitness (log ratio)": -0.894},
      {"variant": "A46G G47A U59A", "polymerase ribozyme fitness (log ratio)": -0.512},
      {"variant": "G47C C56A", "polymerase ribozyme fitness (log ratio)": -2.47},
      {"variant": "A46G C97U U130G", "polymerase ribozyme fitness (log ratio)": -2.03},
      {"variant": "A46U G71U G110A", "polymerase ribozyme fitness (log ratio)": -2.84},
      {"variant": "G47A A83U", "polymerase ribozyme fitness (log ratio)": -0.645},
      {"variant": "G47U C53G C62A", "polymerase ribozyme fitness (log ratio)": -2.11},
      {"variant": "G48C C62U U87G G110C U116A", "polymerase ribozyme fitness (log ratio)": -6.41},
      {"variant": "G47C C49A C70A U106G", "polymerase ribozyme fitness (log ratio)": -5.44},
      {"variant": "A46U C64U A66U", "polymerase ribozyme fitness (log ratio)": -2.06},
      {"variant": "G48A G57A G60U G120A", "polymerase ribozyme fitness (log ratio)": -0.327},
      {"variant": "G47A G127C", "polymerase ribozyme fitness (log ratio)": -2.06},
      {"variant": "A46U G60C G93C G113C A121C", "polymerase ribozyme fitness (log ratio)": -4.8},
      {"variant": "G48C C49U U106G", "polymerase ribozyme fitness (log ratio)": -2.77},
      {"variant": "G48A C89U C124U", "polymerase ribozyme fitness (log ratio)": 0.551},
      {"variant": "A46U C101G", "polymerase ribozyme fitness (log ratio)": -3.57},
      {"variant": "A46U C101U", "polymerase ribozyme fitness (log ratio)": -0.308},
      {"variant": "G48A G60A U78C U109A G110U", "polymerase ribozyme fitness (log ratio)": -4.9},
      {"variant": "G47A C62U U112C C114U A118G", "polymerase ribozyme fitness (log ratio)": -3.76},
      {"variant": "G47A A121U", "polymerase ribozyme fitness (log ratio)": 1.38},
      {"variant": "G47C G58A A121G G135U", "polymerase ribozyme fitness (log ratio)": 0.038},
      {"variant": "G47C G117U", "polymerase ribozyme fitness (log ratio)": -4.33},
      {"variant": "G48A G63A U133G", "polymerase ribozyme fitness (log ratio)": -1.13},
      {"variant": "A46U U96A", "polymerase ribozyme fitness (log ratio)": -1.81},
      {"variant": "A46U C62U G113A", "polymerase ribozyme fitness (log ratio)": -2.45},
      {"variant": "G47U G51U C124U", "polymerase ribozyme fitness (log ratio)": -3.46},
      {"variant": "A46U G120U G135C", "polymerase ribozyme fitness (log ratio)": -0.818},
      {"variant": "G47A U112A", "polymerase ribozyme fitness (log ratio)": -0.273},
      {"variant": "A46G U54G", "polymerase ribozyme fitness (log ratio)": 0.0807},
      {"variant": "G48A C56G C85G C94A A105G", "polymerase ribozyme fitness (log ratio)": -6.42},
      {"variant": "A46C G58C U59A C88G", "polymerase ribozyme fitness (log ratio)": -2.01},
      {"variant": "A46C C56A C85G", "polymerase ribozyme fitness (log ratio)": -5.4},
      {"variant": "G45U G63U", "polymerase ribozyme fitness (log ratio)": -2.05},
      {"variant": "G45U G63C", "polymerase ribozyme fitness (log ratio)": -2.21},
      {"variant": "G48A C72G", "polymerase ribozyme fitness (log ratio)": -0.135},
      {"variant": "G48A C72U", "polymerase ribozyme fitness (log ratio)": -0.785},
      {"variant": "G48A C72A", "polymerase ribozyme fitness (log ratio)": -0.519},
      {"variant": "G47A G51C C98A C102U C115U G127U", "polymerase ribozyme fitness (log ratio)": -7.84},
      {"variant": "A46U U96C C115U", "polymerase ribozyme fitness (log ratio)": -2.77},
      {"variant": "A46U G57U C94A", "polymerase ribozyme fitness (log ratio)": -2.21},
      {"variant": "A46U G63A C85G A121C", "polymerase ribozyme fitness (log ratio)": -1.37},
      {"variant": "G45U G61U G117U C123A", "polymerase ribozyme fitness (log ratio)": -2.94},
      {"variant": "A46G G113A", "polymerase ribozyme fitness (log ratio)": -1.46},
      {"variant": "A46U A83G G110A", "polymerase ribozyme fitness (log ratio)": -3.02},
      {"variant": "G48A U59A", "polymerase ribozyme fitness (log ratio)": -0.703},
      {"variant": "G47A G60C G69U A119U", "polymerase ribozyme fitness (log ratio)": -2.55},
      {"variant": "A46C U87A G93C C115A U116C A119C", "polymerase ribozyme fitness (log ratio)": -3.74},
      {"variant": "G47U C56U C72U U116C", "polymerase ribozyme fitness (log ratio)": -3.11},
      {"variant": "G47U U54C C70U U96C U116C U129C", "polymerase ribozyme fitness (log ratio)": -4.8},
      {"variant": "A46U C49G C56U C76U U87A", "polymerase ribozyme fitness (log ratio)": -1.97},
      {"variant": "G47C G69U C72U", "polymerase ribozyme fitness (log ratio)": -1.29},
      {"variant": "G48A A50U U78A A119G G120C", "polymerase ribozyme fitness (log ratio)": 0.486},
      {"variant": "G47A C94A", "polymerase ribozyme fitness (log ratio)": -1.89},
      {"variant": "G47U U125G", "polymerase ribozyme fitness (log ratio)": -2.32},
      {"variant": "G48A C80U U96A C114U", "polymerase ribozyme fitness (log ratio)": -3.73},
      {"variant": "A46U G52C U87G G135U", "polymerase ribozyme fitness (log ratio)": -1.01},
      {"variant": "G48A C72U C94U G127A", "polymerase ribozyme fitness (log ratio)": -2.68},
      {"variant": "G47A A50U G57U C82A", "polymerase ribozyme fitness (log ratio)": -2.37},
      {"variant": "G47C A108G U112A", "polymerase ribozyme fitness (log ratio)": -5.05},
      {"variant": "G48A C56U C86A C94A A111C", "polymerase ribozyme fitness (log ratio)": -2.79}
    ]}
  ]
}
